Source: patent US20230028110A1 (ADAPTATE BIOTHERAPEUTICS, published 2023)

How the values were obtained:
[1] = target: T1, Vδ1 chain of the γδ TCR on human Vδ1 γδ T cells (human); assay: flow cytometry on Vδ1 γδ T-cells, anti-human IgG secondary antibody, % cells bound IgG
T1 construct: whole, on cells; also called cell surface Vδ1 TCR; Vδ1-positive γδ T cells

[2] = target: T2, OX40 on activated CD4 T-cells; assay: flow cytometry on anti-CD3/anti-CD28-activated CD4 T-cells, anti-human IgG secondary antibody, % cells bound IgG
T2 construct: also called OX40+ CD4 T-cells
T2 chain: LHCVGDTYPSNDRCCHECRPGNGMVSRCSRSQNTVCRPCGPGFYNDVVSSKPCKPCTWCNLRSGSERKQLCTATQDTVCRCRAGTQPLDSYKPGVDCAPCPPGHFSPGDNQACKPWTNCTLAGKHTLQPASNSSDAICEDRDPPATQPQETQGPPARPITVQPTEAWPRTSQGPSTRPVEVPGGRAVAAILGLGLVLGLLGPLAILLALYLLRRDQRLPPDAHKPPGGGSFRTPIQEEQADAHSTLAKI
Method: Initially CD4+ T-cells were negatively selected by magnetic sorting from PBMC buffy coats extracted from whole blood. Following activation by anti-CD3/anti-CD28 antibodies conjugated to Dynabeads (Invitrogen), cell surface expression of OX40 was elevated on CD4 T-cells. […] After washing, cells were incubated for a further 15 minutes with anti-human IgG secondary antibodies before washing and fixing. The amount of antibody bound to each cell type was determined by flow cytometry.

[3] = target: T3, OX40 on OX40+ NFAT Jurkat cells (human, UniProt P43489); assay: cell-based or functional assay
T3 sequence (receptor, looked up): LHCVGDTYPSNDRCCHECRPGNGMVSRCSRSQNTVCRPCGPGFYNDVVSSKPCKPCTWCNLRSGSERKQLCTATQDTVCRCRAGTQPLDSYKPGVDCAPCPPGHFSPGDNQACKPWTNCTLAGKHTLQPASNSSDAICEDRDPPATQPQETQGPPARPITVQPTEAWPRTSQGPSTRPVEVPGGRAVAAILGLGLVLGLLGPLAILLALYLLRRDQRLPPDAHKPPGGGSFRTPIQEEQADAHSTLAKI

[4] = target: T4, L1 (DV1-GV4), soluble human Vδ1/Vγ4 γδ TCR heterodimer in leucine zipper format (human); assay: SPR (Reichert 4SPR), antibody on Protein A chip, antigen flown over
T4 construct: Biotinylated in the DELFIA ranking; also called Antigen L1 (TRDV1/TRGV4); human DV1-GV4; not shown: gamma chain: Vγ4 (TRGV4) domain on a TCR constant region, leucine zipper, histidine tag
T4 sequence (main, as listed by the source): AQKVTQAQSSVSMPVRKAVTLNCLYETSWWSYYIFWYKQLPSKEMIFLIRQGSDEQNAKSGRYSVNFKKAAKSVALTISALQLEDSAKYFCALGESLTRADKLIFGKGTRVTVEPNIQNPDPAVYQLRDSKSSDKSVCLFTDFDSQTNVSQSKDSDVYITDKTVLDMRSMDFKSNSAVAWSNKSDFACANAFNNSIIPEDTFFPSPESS

Recombinant human OX40 = target: T5, Recombinant human OX40 (human, UniProt P43489 29-216, limits assumed); assay: as above
T5 construct: also called CD134
T5 sequence (looked up): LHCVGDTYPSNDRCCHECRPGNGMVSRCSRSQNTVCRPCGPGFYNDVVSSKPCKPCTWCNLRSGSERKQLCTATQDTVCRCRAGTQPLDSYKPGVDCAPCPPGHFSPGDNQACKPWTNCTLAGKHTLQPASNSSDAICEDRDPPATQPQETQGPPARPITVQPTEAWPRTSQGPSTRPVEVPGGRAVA
Method: Recombinant human Vδ1 heterodimer or human OX40 was flown over the cell at a top concentration of 100 nM.

[5] = target: T4, L1 (DV1-GV4), soluble human Vδ1/Vγ4 γδ …; assay: DELFIA ELISA, 0.4 nM human TRDV1 antigen; heat map cell of the clone
[6] = target: T4, L1 (DV1-GV4), soluble human Vδ1/Vγ4 γδ …; assay: SPR, captured IgG, human DV1-GV4 flown over
[7] = target: T6, Cyno DV1/GV77 antigen, recombinant cynomolgus Vδ1 heterodimer (cynomolgus monkey); assay: SPR, captured IgG, cyno DV1-GV77 flown over
T6 construct: also called cyno TRDV1; Cyno DV1-77; not shown: delta CDR3/J, TCR constant region, zipper and tag; the whole gamma chain GV77
T6 sequence (delta, as listed by the source limits assumed): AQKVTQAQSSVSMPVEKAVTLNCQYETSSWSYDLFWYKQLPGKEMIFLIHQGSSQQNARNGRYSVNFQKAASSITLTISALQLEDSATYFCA

[8] = target: T6, Cyno DV1/GV77 antigen, recombinant …; assay: DELFIA ELISA, cyno antigen; heat map cell of the clone
[9] = target: T4, L1 (DV1-GV4), soluble human Vδ1/Vγ4 γδ …; assay: SPR (Reichert 4SPR), antibody on Protein A chip, Vδ1 heterodimer at 6.25-100 nM as analyte
[10] = target: T6, Cyno DV1/GV77 antigen, recombinant …; assay: as above
[11] = target: T4, L1 (DV1-GV4), soluble human Vδ1/Vγ4 γδ …; assay: SPR (Reichert 4SPR), antibody on Protein A chip
[12] = target: T6, Cyno DV1/GV77 antigen, recombinant …; assay: SPR (Reichert 4SPR), antibody on Protein A chip

T1 sequence (A0A1B0GX56 22-115, stated change not applied): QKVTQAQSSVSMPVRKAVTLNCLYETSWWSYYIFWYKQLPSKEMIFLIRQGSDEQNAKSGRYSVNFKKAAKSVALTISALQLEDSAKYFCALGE

B1: Anti-Vδ1xanti-OX40 (ADT1-4-2xpogalizumab) bispecific antibody (bispecific antibody, human IgG1, kappa)
light: DIQMTQSPPALSASVGDRVTITCRASQDINDWLAWYQHKPGKAPKLLIYDASSLESGVPLRFSGSGSGTEFTLTISSLQPDDFATYYCQQKYSAPQVTFGQGTRLEIKRTVAAPSVFIFPPSDEQLKSGTASVVCLLNNFYPREAKVQWKVDNALQSGNSQESVTEQDSKDSTYSLSSTLTLSKADYEKHKVYACEVTHQGLSSPVTKSFNRGEC
heavy: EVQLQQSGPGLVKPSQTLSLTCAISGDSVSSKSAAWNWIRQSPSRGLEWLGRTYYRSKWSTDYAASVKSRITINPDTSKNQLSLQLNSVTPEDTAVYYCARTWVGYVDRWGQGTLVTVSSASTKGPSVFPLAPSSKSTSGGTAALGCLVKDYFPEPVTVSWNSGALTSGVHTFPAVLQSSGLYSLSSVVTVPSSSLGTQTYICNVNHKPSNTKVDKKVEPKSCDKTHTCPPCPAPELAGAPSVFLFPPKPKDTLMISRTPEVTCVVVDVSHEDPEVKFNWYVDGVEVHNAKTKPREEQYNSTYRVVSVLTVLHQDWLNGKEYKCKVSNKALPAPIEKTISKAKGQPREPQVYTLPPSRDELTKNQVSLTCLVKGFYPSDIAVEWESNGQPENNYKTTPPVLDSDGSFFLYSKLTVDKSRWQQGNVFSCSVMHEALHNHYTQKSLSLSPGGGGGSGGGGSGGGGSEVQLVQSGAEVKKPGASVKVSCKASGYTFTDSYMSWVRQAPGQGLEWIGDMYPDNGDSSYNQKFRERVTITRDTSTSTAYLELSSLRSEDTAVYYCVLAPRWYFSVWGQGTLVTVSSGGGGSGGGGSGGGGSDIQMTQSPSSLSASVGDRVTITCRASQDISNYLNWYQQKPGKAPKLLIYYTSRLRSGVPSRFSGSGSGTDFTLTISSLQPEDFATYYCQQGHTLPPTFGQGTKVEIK
notes: also called ADT1-4-2xOX40; Vδ1-OX40 bispecific antibody
For B1, the “EC50 (read off the curve)” value [1] was ~0.3 nM, the “EC50 (read off the curve)” value [2] was ~2 nM and the “EC50 (read off the curve), OX40+ NFAT Jurkat activation assay” value [3] was ~20 nM. It also gave a Kd [4] of 1.2 nM and a Kd (Recombinant human OX40) of 1.63 nM.

B2: ADT1-4-8 (antibody, V domains shown)
VH: EVQLQQSGPGLVKPSQTLSLTCAISGDSVSSKSAAWNWIRQSPSRGLEWLGRTYYRSKWSTDYAASVKSRITINPDTSKNQLSLQLNSVTPEDTAVYYCARTWVGYADVWGQGTLVTVSS
VL: DIQMTQSPPALSASVGDRVTITCRASQDINDWLAWYQHKPGKAPKLLIYDASSLESGVPLRFSGSGSGTEFTLTISSLQPDDFATYYCQQKYSAPQVTFGQGTRLEIK
For B2, the “ELISA signal (heat map)” value [5] was 42700, the Kd [6] was 0.541 nM and the Kd [7] was 15.1 nM. For the same binder, the “ELISA signal (heat map)” value [8] was 139000.

B3: ADT1-4-2 (L74S) (antibody, V domains shown)
VH: EVQLQQSGPGLVKPSQTLSLTCAISGDSVSSKSAAWNWIRQSPSRGLEWLGRTYYRSKWSTDYAASVKSRITINPDTSKNQLSLQLNSVTPEDTAVYYCARTWVGYVDRWGQGTLVTVSS
VL: DIQMTQSPPALSASVGDRVTITCRASQDINDWLAWYQHKPGKAPKLLIYDASSLESGVPSRFSGSGSGTEFTLTISSLQPDDFATYYCQQKYSAPQVTFGQGTRLEIKR
notes: Captured on Protein A
In the case of B3, the Kd [9] is reported as 4 nM, the Kd [10] is reported as 61 nM and the “fold reduction in affinity against ADT1-4-2” value [11] is reported as ~11 fold. For the same binder, the “fold reduction in affinity against ADT1-4-2” value [12] was ~23 fold.
